Experimental data taken from US20190241668A1 (ARGENX, published 2019).

T1: TIM-3 (T cell immunoglobulin and mucin-domain containing-3) (human, UniProt Q8TDQ0 22-200, limits assumed)
T1 construct: also called TIMD-3; HAVCR2
T1 sequence (looked up): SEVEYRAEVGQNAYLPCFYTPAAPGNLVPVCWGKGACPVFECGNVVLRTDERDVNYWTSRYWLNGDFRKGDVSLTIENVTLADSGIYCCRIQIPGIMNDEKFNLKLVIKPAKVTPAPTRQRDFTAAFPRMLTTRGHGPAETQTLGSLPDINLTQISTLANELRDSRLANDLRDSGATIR

B1: Fab clone 2A2 (Fab, V domains shown)
VH: EVQVQESGGGLVQPGGSLRLSCAASGFTFSSYAMSWVRQAPGKGLEWVSDINSGGGSTVYTDSVKGRFTISRDNAKNTLYLQMNSLKPDDTAVYYCATGGSYYSYRLFDYWGQGTQVTVSS
VL: DIQMTQSPSSVIVSAGEKVTINCKSSQSVLDSSNQKNYLAWYQQRLGQSPRLLIYWASTRESGVPDRFSGSGSTTDFTLTISSFQPEDAAVYYCQQGYSVPVTFGQGTKVELKR
notes: Llama-derived Fab from an immune library; the constant domains of the Fab are not
B2: Fab clone 1A11 (Fab, V domains shown)
VH: EVQLVESGGGLVQPGGSLRLSCAASGFTFSSYAMSWVRQAPGKGPEWVSHINSGGGNTKYADSVKGRFTISRDNAKNTLYLQMNTLKPEDTAVYYCAKDVSGGYYGTYALDAWGQGTQVVVSS
VL: SYELTQSPSVSVALKQTAKITCGGDNIGSKSAQWYQQKPGQAPVLVIYADSRRPSGIPERFSGSNSGNTATLTISGAQAEDEADYYCQVWDSSAAVFGGGTHLTVL
notes: as for B1
B3: Fab clone 2G6 (Fab, V domains shown)
VH: EVQLVESGGGLVQPGGSLRLSCAASGFTFSSYSMSWVRQAPGKGPEWVSGINTSGGTTSYAASVKGRFTVSRDNAKNTLSLQMNSLEPEDTAVYYCVKHIRWSGSNYYYYGMDYWGKGTLVTVSS
VL: QAVLTQPPSVSGSPGQRFTISCTGSNRNIGNNYVNWYQQLPGTAPKLLIYSDNLRTSGVPARFSASKSGTTSSLTISGLQAEDEAVYYCSSWDDSLSGAVFGGGTHLTVL
notes: as for B1
B4: Fab clone 2E7 (Fab, V domains shown)
VH: ELQVVESGGGLVQPGGSLRLSCAASGFTFGSYDMSWHRQAPRKGPEWVSTISAGGGRTYYADSVKGRFTISRDNAKNTLYLQMNSLKPEDTAVYFCTKIVLDSWGQGTQVTVSS
VL: DVVLTQTPGSLSVVPGESASISCKASQSLIHIDGKTYLYWLLQKPGRRPELLIYQVSNHESGVPDRFTGSGSGTDFTLKISGVKAEDAGVYYCAQATYYPSFGSGTRLEIK
notes: as for B1
B5: Fab clone 2F8 (Fab, V domains shown)
VH: EVQLVESGGGLVQPGGSLRLSCAASGFTFGSYDMSWVRQAPGKGPEWVSTISAGGGRTYYADSVKDRFTISRDNAKNTLYLQMNSLKPEDTAVYYCAKVVIDYWGQGTQVTVSS
VL: DVVLTQTPGSLSVVPGESASISCKASQSLVHTDGKTYVYWLLQKPGQRPHLLIYQVSNHESGVPDRFTGSGSGTDFTLKISGVKAEDAGVYYCAQATYYPSFGSGTRLEIK
notes: as for B1
B6: Fab clone 2B10 (Fab, V domains shown)
VH: QVQLQESGPGLVKPSQTLSLTCTVSGGSITTNRYLWTWIRQTPGKGLEWVGAIAYSGRTYYSPSLKSRTSISRDTSKNQFTLQLSSVTPEDTGVYYCAHFTGWGGYYWGQGTQVTVSS
VL: QSALTQPPSVSGTLGKTVTISCAGTSSDIGGYNSVSWYQQLPGTAPKLLIYEVNKRASGIPDRFSGSKSGNTASLSISGLQSEDEADYYCASYRSANNVVFGGGTKLTVL
notes: Llama-derived Fab from an immune library; the constant domains of the Fab are not; also called 2610; 21310
B7: Fab clone 2A9 (Fab, V domains shown)
VH: QVQLVESGPGLVKPSQTLSLTCTVSGGSITTSDDAWSWIRQPAGKGLEWMGVIAYDGSTRYSPSLQSRTSISRDTSKNQFSLQLSSVTPEDTAVYYCARTKGVGGTWALDAWGQGTLVTVSS
VL: EIVLTQSPSSVTASVGEKVTINCKSSQSVLSSSNQKNYLSWYQQRLGQSPRLLITWASTRESGVPDRFSGSGSTTDFTLTISSFQPEDAAVYYCQQGYGAPLTFGQGTKVELKR
notes: as for B1
B8: Fab clone 2C6 (Fab, V domains shown)
VH: QVQLVESGGGLVQPGGSLRLSCAASGFAFSSYDMSWVRQAPGKGPEWVSTINSGGGSTSYADSVKGRFTISRDNAKNTVYLQMNSLKPEDTAVYYCAARSLYYTRVPMYDYWGQGTQVTVSK
VL: QAVVTQEPSLSVSPGGTVTLTCGLSSGSVTTNNYPGWFQQTPGQAPRTLIYSTSSRHSGVPSRFSGSISGNKAALTITGAQPEDEADYYCALDIGSYTAVFGGGTHLTVL
notes: as for B1
B9: Fab clone 2B6 (Fab, V domains shown)
VH: QVQLVESGGGLVQPGGSLRLSCAASGFAFSSYDMSWVRQAPGKGLEWVSTINSGGGSTNYADSMKGRFTISRDNAKNTVYLQMNSLKPEDTAVYYCAARSPYYTRVPLYDYWGQGTQVTVSS
VL: QAVVTQEPSLSVSLGGTVTLTCGLRSGSVTTSNYPGWFKQTPGQAPRTLIFGASSRHSGVPSRYSGSISGNKAALTITGAEPEDEADYYCALNKGTYTDVFGGGTKLTVL
notes: as for B1
B10: Fab clone 2E9 (Fab, V domains shown)
VH: EVQLVESGGGLVQPGGSLRLSCAASGFTFDDYTMSWVRQVPGKGLEWISGISGNGGRTDYVEPIEGRFTISRDNAKNTLYLQMNSLKSEDTAVYYCAKTSPQSLDYWGQGTQVTVSS
VL: DIVMTQSPSSVTASVGEKVTINCKSSQSVVSGSNQKSYLNWYQQRPGQPPRLLIYYASTQESGIPDRFSGSGSTTDFTLTISSVQPEDAAVYYCQQAYSAPYNFGSGTRLEIK
notes: as for B1
B11: Fab clone 2A6 (Fab, V domains shown)
VH: QVQLVESGGGLVQPGGSLRLSCAASGFTFSNYWMYWVRQAPGKGLEWVSTINTNGAITLYADNVKDRFTVSRDNAKNTLYLQMNSLKSEDTAVYYCAKVKLSGYPHPYYAMDYWGKGTLVTVSS
VL: NFMLTQPPSLSGSLGQSARLTCTLGSGNSIGAHTISWYQQKAGSPPRYLLNYYSDSSNHQASGVPSRFSGSKDDSTNAGLLLISGLQPEDEADYYCAAGDGSGTVFGGGTKLTVL
notes: as for B1
B12: Fab clone 2B9 (Fab, V domains shown)
VH: EVQLQESGPGLVKPSQTLSLTCTVSGASVTTRYNYWSWIRQPPGKGLEWMGAITYSGSTYYSPSLKSRTSISRDTSKNQFTLQLSSVTPEDTAVYYCATEGSSSTGVSRYSFGSWGQGTQVTVSS
VL: ATMLTQSPGSLSVVPGESASISCKASQSLTHTDGTTALYWLQQKPGQRPQLLIYEVSVRASGVPDRFTGSGSGSDFTLKINGVKAEDAGVYYCAQVAYYPTFGQGTKVELK
notes: as for B1
B13: Fab clone 2D6 (Fab, V domains shown)
VH: QVQLQESGGGLVQPGGSLTLSCAASGFFFSSYAMSWVRQAPGKGLEWVSSISAGGGTSYYADSVKGRFTISRDSAKNTLVLQMNSLKPEDTAVYYCAKKRQNFWSEGYDSWGQGTQVTVSS
VL: HSAVTQPPSVSGSPGKAVTISCVGSSSDVGYGDYVSWYQQLPGMAPKLLIYDVEKRASGIPDRFSGSKSGNTASLTISGLQSEDEADYYCASYRSDSNFVFGGGTHLAVL
notes: as for B1
B14: Fab clone 2E2 (Fab, V domains shown)
VH: QLQLVESGGGLVQPGGSLRLSCAASGFTFGSYDMSWVRQAPGKGPEWVSRITSGGGSTYADSVKGRFTISRDNAKNTLSLQMNSLKSEDTAVYYCAAGQYSDGYYPYDYWGQGTQVTVSS
VL: DIVMTQSPSSLSASLGDRVTITCQASQSISSYLAWYQQKPGQGPKLLIYGASRLEPGVPSRFSGSGSGTSFTLTISGVEAEDLATYYCLQDYSWPYSFGSGTRLEIK
notes: as for B1

Tests used:
[1] = molecular target: T1, TIM-3 (T cell immunoglobulin and …); test: ELISA, Fab on TIM-3
[2] = molecular target: T1, TIM-3 (T cell immunoglobulin and …); test: Biacore, Fab on TIM-3

| Binder | EC50 [1] [µg/mL] | koff [2] [s⁻¹] |
| --- | --- | --- |
| B1 | 0.00805 | 4.41e-05 |
| B2 | 0.01 | 2.48e-05 |
| B3 | 0.0133 | 3.72e-05 |
| B4 | 0.0133 | 7.62e-05 |
| B5 | 0.0181 | 8.53e-05 |
| B6 | 0.014 | 1.85e-05 |
| B7 | 0.0114 | – |
| B8 | 0.00821 | 1.04e-05 |
| B9 | 0.00852 | 3.64e-05 |
| B10 | 0.0149 | 6.64e-05 |
| B11 | 0.0104 | 0.000151 |
| B12 | 0.00851 | 4.87e-05 |
| B13 | 0.00717 | 0.000166 |
| B14 | 0.121 | – |
